From PMC9482650, “Quantitative fragmentomics allow affinity mapping of interactomes” (Nature Communications, 2022)

What was measured:
Assay in all cases: holdup assay
Set-up in all cases: key: below the threshold = too weak to quantify, mostly under pKd 3.1 to 4
[1] = molecular target: T1, PDZD11, Q5EBL8
T1 sequence (Q5EBL8 42-139, limits assumed, looked up): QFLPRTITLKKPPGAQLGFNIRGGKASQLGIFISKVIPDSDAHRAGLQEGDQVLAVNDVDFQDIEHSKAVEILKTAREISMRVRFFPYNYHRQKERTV

[2] = molecular target: T2, PDZD8, Q8NEN9
T2 sequence (Q8NEN9 361-459, limits assumed, looked up): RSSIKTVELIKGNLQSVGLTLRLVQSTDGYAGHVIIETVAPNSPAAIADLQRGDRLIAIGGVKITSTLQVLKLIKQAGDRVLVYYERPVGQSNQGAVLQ

[3] = molecular target: T3, SHANK3, Q9BYB0
T3 sequence (Q9BYB0 641-750, limits assumed, looked up): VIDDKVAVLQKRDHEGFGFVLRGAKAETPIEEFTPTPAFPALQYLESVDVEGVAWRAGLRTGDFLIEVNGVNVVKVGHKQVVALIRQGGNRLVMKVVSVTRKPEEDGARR

[4] = molecular target: T4, NHERF3_2, Q5T2W1
T4 sequence (Q5T2W1 129-225, limits assumed, looked up): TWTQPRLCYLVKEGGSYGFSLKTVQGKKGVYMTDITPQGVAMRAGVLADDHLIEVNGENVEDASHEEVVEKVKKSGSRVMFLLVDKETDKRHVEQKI

[5] = molecular target: TJP1_1, Q07157
[6] = molecular target: T5, PDZD7_1, Q9H5P4
T5 sequence (Q9H5P4 81-178, limits assumed, looked up): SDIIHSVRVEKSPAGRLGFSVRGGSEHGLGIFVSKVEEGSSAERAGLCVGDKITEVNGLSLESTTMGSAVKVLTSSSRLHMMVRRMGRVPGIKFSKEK

[7] = molecular target: T6, APBA3_2, O96018
T6 sequence (O96018 480-570, limits assumed, looked up): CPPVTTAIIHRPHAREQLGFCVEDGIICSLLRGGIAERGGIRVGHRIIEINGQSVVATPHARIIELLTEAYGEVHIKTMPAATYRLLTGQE

[8] = molecular target: T7, DVL1, O14640
T7 sequence (O14640 246-333, limits assumed, looked up): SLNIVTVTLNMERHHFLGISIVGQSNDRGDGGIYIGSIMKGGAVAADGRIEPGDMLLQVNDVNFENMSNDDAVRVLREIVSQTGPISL

[9] = molecular target: T8, PTPN13_4, Q12923
T8 sequence (Q12923 1783-1878, limits assumed, looked up): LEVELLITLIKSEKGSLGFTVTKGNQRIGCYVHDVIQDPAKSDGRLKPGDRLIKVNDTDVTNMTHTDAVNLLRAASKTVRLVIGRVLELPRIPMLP

[10] = molecular target: T9, MPDZ_2, O75970
T9 sequence (O75970 252-347, limits assumed, looked up): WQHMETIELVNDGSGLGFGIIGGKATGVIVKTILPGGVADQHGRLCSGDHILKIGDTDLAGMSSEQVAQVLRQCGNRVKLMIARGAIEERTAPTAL

[11] = molecular target: T10, NHERF1_1, O14745
T10 sequence (O14745 9-104, limits assumed, looked up): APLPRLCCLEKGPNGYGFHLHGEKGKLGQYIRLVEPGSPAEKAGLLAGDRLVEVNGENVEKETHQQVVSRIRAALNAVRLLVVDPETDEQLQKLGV

[12] = molecular target: T11, PDZD2_1, O15018
T11 sequence (O15018 80-192, limits assumed, looked up): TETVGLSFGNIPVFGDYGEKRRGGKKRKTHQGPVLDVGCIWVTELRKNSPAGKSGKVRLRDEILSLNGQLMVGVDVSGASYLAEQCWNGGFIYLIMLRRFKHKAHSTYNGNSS

[13] = molecular target: T12, PDZD4, Q76G19
T12 sequence (Q76G19 125-224, limits assumed, looked up): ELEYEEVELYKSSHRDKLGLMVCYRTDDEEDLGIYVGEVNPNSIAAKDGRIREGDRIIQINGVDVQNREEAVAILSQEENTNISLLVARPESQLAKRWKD

[14] = molecular target: T13, PDZRN3_2, Q9UPQ7
T13 sequence (Q9UPQ7 414-513, limits assumed, looked up): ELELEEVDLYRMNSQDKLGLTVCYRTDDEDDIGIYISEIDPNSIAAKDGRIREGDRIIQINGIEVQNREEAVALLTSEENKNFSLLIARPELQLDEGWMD

[15] = molecular target: T14, PARD6G, Q9BYG4
T14 sequence (Q9BYG4 153-261, limits assumed, looked up): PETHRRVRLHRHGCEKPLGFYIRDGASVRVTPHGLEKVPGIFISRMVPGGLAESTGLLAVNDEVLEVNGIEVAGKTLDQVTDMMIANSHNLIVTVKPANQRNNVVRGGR

[16] = molecular target: Q96FS4; details: plain residues with an end cap or a label only (N-terminal biotin on a linker: ttds)
[17] = molecular target: T15, MAGI2_1, Q86UL8
T15 sequence (Q86UL8 12-111, limits assumed, looked up): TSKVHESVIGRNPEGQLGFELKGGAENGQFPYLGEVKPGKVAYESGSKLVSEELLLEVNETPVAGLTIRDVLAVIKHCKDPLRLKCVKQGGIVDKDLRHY

[18] = molecular target: T16, CNKSR1, Q969H4
T16 sequence (Q969H4 191-295, limits assumed, looked up): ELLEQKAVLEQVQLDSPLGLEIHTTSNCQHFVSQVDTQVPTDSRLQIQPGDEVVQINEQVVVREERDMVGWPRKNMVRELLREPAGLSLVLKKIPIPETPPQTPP

[19] = molecular target: Q9ULJ8; details: plain residues with an end cap or a label only (N-terminal biotin on a linker: ttds)
[20] = molecular target: AHNAK2, Q8IVF2
[21] = molecular target: Q9NPB6; details: plain residues with an end cap or a label only (N-terminal biotin on a linker: ttds)
[22] = plain residues with an end cap or a label only (N-terminal biotin on a linker: ttds)
[23] = plain residues with an end cap or a label only (N-terminal biotin on a linker: none)

AHNAK2, Q8IVF2, sequence (Q8IVF2 108-193): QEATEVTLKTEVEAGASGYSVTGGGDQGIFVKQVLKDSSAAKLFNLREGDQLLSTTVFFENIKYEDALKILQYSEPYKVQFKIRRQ
TJP1_1, Q07157, sequence (Q07157 18-120): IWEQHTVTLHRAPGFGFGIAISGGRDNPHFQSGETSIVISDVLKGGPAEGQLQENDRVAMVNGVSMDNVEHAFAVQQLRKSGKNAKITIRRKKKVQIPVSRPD

B1: HPV35-E6, P27228 (peptide)
chain: SKPTRRETEV
B1 was tested, and the pKd [1, 22] was “below the threshold”, the pKd [2, 22] was “below the threshold” and the pKd [3, 22] was “below the threshold”. The pKd [4, 22] was “below the threshold”, the pKd [5, 22] was “below the threshold” and the pKd [6, 22] was “below the threshold”. The pKd [7, 22] was “below the threshold”, the pKd [8, 22] was “below the threshold” and the pKd [9, 22] was “below the threshold”. The pKd [10, 22] was “below the threshold”, the pKd [11, 22] was “below the threshold” and the pKd [12, 22] was “below the threshold”. The pKd [13, 22] was 3.55, the pKd [14, 22] was 3.57 and the pKd [15, 22] was “below the threshold”.

B2: HPV59-E6, Q81964 (peptide)
chain: QRQARSETLV
With B2 the pKd [1, 22] was “below the threshold”, the pKd [2, 22] was “below the threshold” and the pKd [3, 22] was 4.22. For the same binder, the pKd [16] was “below the threshold”, the pKd [17, 22] was “below the threshold” and the pKd [18, 22] was “below the threshold”. For the same binder, the pKd [4, 22] was “below the threshold”, the pKd [19] was “below the threshold” and the pKd [5, 22] was “below the threshold”. For the same binder, the pKd [20, 22] was “below the threshold”, the pKd [6, 22] was “below the threshold” and the pKd [7, 22] was “below the threshold”. The pKd [8, 22] was “below the threshold”, the pKd [9, 22] was 4.42 and the pKd [10, 22] was “below the threshold”. For the same binder, the pKd [11, 22] was “below the threshold”, the pKd [12, 22] was “below the threshold” and the pKd [13, 22] was “below the threshold”. The pKd [14, 22] was “below the threshold”, the pKd [21] was “below the threshold” and the pKd [15, 22] was “below the threshold”.

B3: HPV30-E6, P36809 (peptide)
chain: RHTTSTETAV
In the case of B3, the pKd [1, 22] is reported as “below the threshold”, the pKd [2, 22] is reported as “below the threshold” and the pKd [3, 22] is reported as “below the threshold”. For the same binder, the pKd [16] was “below the threshold”, the pKd [17, 22] was “below the threshold” and the pKd [18, 22] was “below the threshold”. For the same binder, the pKd [4, 22] was “below the threshold”, the pKd [19] was “below the threshold” and the pKd [5, 22] was “below the threshold”. The pKd [20, 22] was “below the threshold”, the pKd [6, 22] was “below the threshold” and the pKd [7, 22] was “below the threshold”. The pKd [8, 22] was “below the threshold”, the pKd [9, 22] was “below the threshold” and the pKd [10, 22] was “below the threshold”. The pKd [11, 22] was “below the threshold”, the pKd [12, 22] was “below the threshold” and the pKd [13, 22] was “below the threshold”. The pKd [14, 22] was “below the threshold”, the pKd [21] was “below the threshold” and the pKd [15, 22] was “below the threshold”.

B4: ATP2B4, P23634 (peptide)
chain: SSLQSLETSV
For B4, the pKd [1, 22] was “below the threshold”, the pKd [2, 22] was “below the threshold” and the pKd [3, 22] was “below the threshold”. For the same binder, the pKd [16] was “below the threshold”, the pKd [17, 22] was “below the threshold” and the pKd [18, 22] was “below the threshold”. For the same binder, the pKd [4, 22] was “below the threshold”, the pKd [19] was “below the threshold” and the pKd [5, 22] was “below the threshold”. The pKd [20, 22] was “below the threshold”, the pKd [6, 22] was “below the threshold” and the pKd [7, 22] was 4.21. For the same binder, the pKd [8, 22] was “below the threshold”, the pKd [9, 22] was “below the threshold” and the pKd [10, 22] was “below the threshold”. For the same binder, the pKd [11, 22] was “below the threshold”, the pKd [12, 22] was “below the threshold” and the pKd [13, 22] was “below the threshold”. For the same binder, the pKd [14, 22] was “below the threshold”, the pKd [21] was “below the threshold” and the pKd [15, 22] was “below the threshold”.

B5: HPV18-E6, P06463 (peptide)
chain: RLQRRRETQV
With B5 the pKd [1, 22] was “below the threshold”, the pKd [2, 22] was “below the threshold” and the pKd [3, 22] was “below the threshold”. The pKd [17, 22] was “below the threshold”, the pKd [18, 22] was “below the threshold” and the pKd [4, 22] was “below the threshold”. For the same binder, the pKd [5, 22] was “below the threshold”, the pKd [6, 22] was “below the threshold” and the pKd [7, 22] was “below the threshold”. For the same binder, the pKd [8, 22] was “below the threshold”, the pKd [9, 22] was 4.03 and the pKd [10, 22] was “below the threshold”. The pKd [11, 22] was “below the threshold”, the pKd [12, 22] was “below the threshold” and the pKd [13, 22] was “below the threshold”. The pKd [15, 22] was “below the threshold”.

B6: HPV73-E6, Q82005 (peptide)
chain: SGSRPSATVV
In the case of B6, the pKd [1, 22] is reported as “below the threshold”, the pKd [2, 22] is reported as 4.04 and the pKd [3, 22] is reported as “below the threshold”. For the same binder, the pKd [17, 22] was “below the threshold”, the pKd [18, 22] was “below the threshold” and the pKd [4, 22] was “below the threshold”. For the same binder, the pKd [5, 22] was “below the threshold”, the pKd [20, 22] was “below the threshold” and the pKd [6, 22] was “below the threshold”. For the same binder, the pKd [7, 22] was “below the threshold”, the pKd [8, 22] was 4.36 and the pKd [9, 22] was “below the threshold”. The pKd [11, 22] was “below the threshold”, the pKd [12, 22] was “below the threshold” and the pKd [13, 22] was “below the threshold”. For the same binder, the pKd [14, 22] was “below the threshold” and the pKd [15, 22] was “below the threshold”.

B7: SARS-CoV2-E, P0DTC4 (peptide)
chain: NLNSSRVPDLLV
For B7, the pKd [1, 23] was “below the threshold”, the pKd [2, 23] was “below the threshold” and the pKd [3, 23] was 3.83. For the same binder, the pKd [17, 23] was “below the threshold”, the pKd [18, 23] was “below the threshold” and the pKd [4, 23] was “below the threshold”. For the same binder, the pKd [5, 23] was “below the threshold”, the pKd [20, 23] was “below the threshold” and the pKd [6, 23] was “below the threshold”. For the same binder, the pKd [7, 23] was “below the threshold”, the pKd [8, 23] was “below the threshold” and the pKd [9, 23] was 4.64. The pKd [10, 23] was “below the threshold”, the pKd [11, 23] was “below the threshold” and the pKd [12, 23] was “below the threshold”. The pKd [13, 23] was “below the threshold”, the pKd [14, 23] was “below the threshold” and the pKd [15, 23] was “below the threshold”.
